B1: Natural full-length protein C inhibitor from human blood plasma (natural protein)
chain: EMKKRVEDLHVGATVAPSSRRDFTFDLYRALASAAPSQSIFFSPVSISMSLAMLSLGAGSSTKMQILEGLGLNLQKSSEKELHRGFQQLLQELNQPRDGFQLSLGNALFTDLVVDLQDTFVSAMKTLYLADTFPTNFRDSAGAMKQINDYVAKQTKGKIVDLLKNLDSNAVVIMVNYIFFKAKWETSFNHKGTQEQDFYVTSETVVRVPMMSREDQYHYLLDRNLSCRVVGVPYQGNATALFILPSEGKMQQVENGLSEKTLRKWLKMFKKRQLELYLPKFSIEGSYQLEKVLPSLGISNVFTSHADLSGISNHSNIQVSEMVHKAVVEVDESGTRAAAATGTIFTFRSARLNSQRLVFNRPFLMFIVDNNILFLGKVNRP
modifications: N-glycans at Asn-230, Asn-243 and Asn-319
B2: Neuraminic acid free full-length protein C inhibitor from human blood plasma (natural protein)
chain: EMKKRVEDLHVGATVAPSSRRDFTFDLYRALASAAPSQSIFFSPVSISMSLAMLSLGAGSSTKMQILEGLGLNLQKSSEKELHRGFQQLLQELNQPRDGFQLSLGNALFTDLVVDLQDTFVSAMKTLYLADTFPTNFRDSAGAMKQINDYVAKQTKGKIVDLLKNLDSNAVVIMVNYIFFKAKWETSFNHKGTQEQDFYVTSETVVRVPMMSREDQYHYLLDRNLSCRVVGVPYQGNATALFILPSEGKMQQVENGLSEKTLRKWLKMFKKRQLELYLPKFSIEGSYQLEKVLPSLGISNVFTSHADLSGISNHSNIQVSEMVHKAVVEVDESGTRAAAATGTIFTFRSARLNSQRLVFNRPFLMFIVDNNILFLGKVNRP
modifications: N-glycans at Asn-230, Asn-243 and Asn-319, sialic acids removed with neuraminidase
B3: PNGase F-treated full-length protein C inhibitor from human blood plasma (natural protein)
chain: EMKKRVEDLHVGATVAPSSRRDFTFDLYRALASAAPSQSIFFSPVSISMSLAMLSLGAGSSTKMQILEGLGLNLQKSSEKELHRGFQQLLQELNQPRDGFQLSLGNALFTDLVVDLQDTFVSAMKTLYLADTFPTNFRDSAGAMKQINDYVAKQTKGKIVDLLKNLDSNAVVIMVNYIFFKAKWETSFNHKGTQEQDFYVTSETVVRVPMMSREDQYHYLLDRNLSCRVVGVPYQGNATALFILPSEGKMQQVENGLSEKTLRKWLKMFKKRQLELYLPKFSIEGSYQLEKVLPSLGISNVFTSHADLSGISNHSNIQVSEMVHKAVVEVDESGTRAAAATGTIFTFRSARLNSQRLVFNRPFLMFIVDNNILFLGKVNRP
modifications: N-glycans removed with PNGase F

What follows are molecules tested against Prostate specific antigen used in the inhibition kinetics (human) (UniProt P07288).
Chain of UniProt P07288 (P07288 25-261): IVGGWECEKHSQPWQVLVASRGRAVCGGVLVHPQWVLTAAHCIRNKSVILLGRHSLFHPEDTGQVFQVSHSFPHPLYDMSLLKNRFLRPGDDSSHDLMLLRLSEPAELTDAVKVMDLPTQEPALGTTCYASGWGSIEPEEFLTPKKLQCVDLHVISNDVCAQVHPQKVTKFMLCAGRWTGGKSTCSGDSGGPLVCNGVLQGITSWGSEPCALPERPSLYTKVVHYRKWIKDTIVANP
Molecule “Neuraminic acid free, NH2-terminally cleaved protein C inhibitor from human blood plasma (natural protein)” has a second-order rate constant for PSA inhibition (discontinuous assay of residual PSA activity on a chromogenic substrate, 350 nM PSA, 10-fold excess of PCI, 25°C, pH 7.4) of 5.8 M^−1s^−1.
With “PNGase F-treated protein C inhibitor from human blood plasma lacking the six NH2-terminal amino acids (natural protein)” the second-order rate constant for PSA inhibition (discontinuous assay of residual PSA activity on a chromogenic substrate, 350 nM PSA, 10-fold excess of PCI, 25°C, pH 7.4) was 29 M^−1s^−1.
Work on “Protein C inhibitor from human blood plasma lacking the six NH2-terminal amino acids (natural protein)” yielded a second-order rate constant for PSA inhibition (discontinuous assay of residual PSA activity on a chromogenic substrate, 350 nM PSA, 10-fold excess of PCI, 25°C, pH 7.4) of 4.1 M^−1s^−1.
With B1 the second-order rate constant for PSA inhibition (discontinuous assay of residual PSA activity on a chromogenic substrate, 350 nM PSA, 10-fold excess of PCI, 25°C, pH 7.4) was 4.3 M^−1s^−1.
B2 was tested, and the second-order rate constant for PSA inhibition (discontinuous assay of residual PSA activity on a chromogenic substrate, 350 nM PSA, 10-fold excess of PCI, 25°C, pH 7.4) was 5.2 M^−1s^−1.
With B3 the second-order rate constant for PSA inhibition (discontinuous assay of residual PSA activity on a chromogenic substrate, 350 nM PSA, 10-fold excess of PCI, 25°C, pH 7.4) was 4.8 M^−1s^−1.

Reference: paper PMC3242763
